# From patent US20230312739A1 (BIOTHEUS, published 2023)
# T1: human CD73 on the cell surface (tumor cells endogenously expressing human CD73; CHOS-human CD73) (human, UniProt P21589 27-549)
# T1 construct: The endogenous CD73 of the human tumor lines (MDA-MB-231, Calu6, SK-ME-S, H2030, SKLU1, BT549, A375, HCC44) is treated as the same protein
# T1 sequence: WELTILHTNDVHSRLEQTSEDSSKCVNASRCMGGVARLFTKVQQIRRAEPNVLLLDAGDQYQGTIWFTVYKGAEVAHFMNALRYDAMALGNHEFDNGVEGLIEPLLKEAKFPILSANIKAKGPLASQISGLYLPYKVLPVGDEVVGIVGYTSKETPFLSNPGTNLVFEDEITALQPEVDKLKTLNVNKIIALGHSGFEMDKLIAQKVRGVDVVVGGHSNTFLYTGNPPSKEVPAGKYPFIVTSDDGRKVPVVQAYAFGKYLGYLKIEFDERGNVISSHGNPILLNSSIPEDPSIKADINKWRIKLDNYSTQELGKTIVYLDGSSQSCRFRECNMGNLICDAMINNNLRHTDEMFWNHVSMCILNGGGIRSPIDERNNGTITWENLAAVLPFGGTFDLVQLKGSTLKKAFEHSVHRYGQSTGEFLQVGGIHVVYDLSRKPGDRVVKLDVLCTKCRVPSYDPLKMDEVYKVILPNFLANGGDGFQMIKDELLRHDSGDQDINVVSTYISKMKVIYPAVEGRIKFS
# B1: murine antibody 13D12 (antibody, V domains shown)
# VH: DVKLQESGPAMVKPSQSLSLTCTVTGYSITSGYDWHWIRLFPGNKLEWMGYISYSGYTDYSPSLKSRISITHDTSKNHFFLKLHSVTTEDTATYYCTRGDHSYAMDYWGQGTSVTVS
# VL: DIVMTQSHKFMSTSVGDRVSITCKASQAVGTAVAWYQQKPGQSPKLLIYWASSRHTGVPDRFTGSRSGTDFTLTISSVQSEDLADYFCQQYSSYPLTFGGGTNLEIK
# notes: Mouse monoclonal antibody purified from hybridoma supernatant; also called mouse monoclonal antibody 13D12
# Tests used:
# [1] = biological target: T1, human CD73 on the cell surface (tumor …); experiment: full-field cell scanning analyzer (Celigo), percent fluorescent cells, A375 cells endogenously expressing human CD73
# Procedure: (§1) Experimental method: 10,000 cells were plated on a flat-bottom 96-well plate with 100 μL DMEM+10% FBS/well, cultured overnight so that the cells adhered to the well, and the supernatant was discarded on the next day. Serial 3-fold dilutions of antibody for 8 points were performed by diluting ⅓ of the total volume (100 μL) in 200 μL DMEM. 100 μL of the diluted antibody was added to each well of the cell plate (the supernatants of fused clones or subclones were used for screening), 100 μL of DMEM was added to the corresponding negative control well, and incubation was performed at room temperature for 1 hour. After the supernatant was discarded, 100 μL of secondary antibody (DyLight488 goat anti-mouse IgG (Abcam, Cat. No. ab97015)) was added to each well at a concentration of 5 μg/mL (diluted in DMEM), and incubation was performed for 0.5 hours at room temperature. After staining, the supernatant was discarded, followed by washing once with PBS+2% FBS, then 100 μL of PBS+2% FBS was added to each well, and then reading was performed on analyzer. A full-field cell scanning analyzer (Nexcelom Company, model Celigo® Image Cytometer) was used to measure the reading of the experimental plate. […] The binding effect of the anti-CD73 antibody to the CD73-expressing cell line was determined according to the percentage. […]
# [2] = biological target: T1, human CD73 on the cell surface (tumor …); experiment: full-field cell scanning analyzer (Celigo), percent fluorescent cells, BT549 cells endogenously expressing human CD73
# Procedure: as §1
# [3] = biological target: T1, human CD73 on the cell surface (tumor …); experiment: full-field cell scanning analyzer (Celigo), percent fluorescent cells, Calu6 cells endogenously expressing human CD73
# Procedure: as §1
# [4] = biological target: T1, human CD73 on the cell surface (tumor …); experiment: full-field cell scanning analyzer (Celigo), percent fluorescent cells, SKLU1 cells endogenously expressing human CD73
# Procedure: as §1
# [5] = biological target: T1, human CD73 on the cell surface (tumor …); experiment: full-field cell scanning analyzer (Celigo), percent fluorescent cells, CHOS cells recombinantly expressing human CD73
# Procedure: as §1
# [6] = biological target: T1, human CD73 on the cell surface (tumor …); experiment: cell binding on adherent CHOS-human CD73 cells, DyLight488 goat anti-mouse IgG, full-field cell scanning analyzer (Celigo), % fluorescent cells
# Procedure: as §1
binder,measurement,setting,value
B1,EC50,[1],2.43 µg/mL
same,EC50,[2],1.78 µg/mL
same,EC50,[3],0.47 µg/mL
same,EC50,[4],2.46 µg/mL
same,EC50,[5],0.44 µg/mL
same,EC50 (read off the curve),[6],~0.06 µg/mL
